Measured values taken from the DeepSol protein solubility set.

Assay: soluble on expression in E. coli; label from the status in PepcDB or PDB records

Row | Sequence | soluble on expression in E. coli
1 | EKVIIEKAAGDAEAIAFDGRTYMEYHNAVTKSPDALDYPAEPSEKALQSNHFELSIKTEATQGLILWSGKGLERSDYIALAIVDGFVQMMYDLGSKPVVLRSTVPINTNHWTHIKAYRVQREGSLQVGNEAPITGSSPLGATQLDTDGALWLGGMERLSVAHKLPKAYSTGFIGCIRDVIVDRQELHLVEDALNNPTILHCSAK | soluble
2 | EVQLQQSGAELARPGASVKMSCKASGYTFTSYTMHWVKQRPGQGLEWIGYINPSSGYSNYNQKFKDKATLTADKSSSTAYMQLSSLTSEDSAVYYCSRPVVRLGYNFDYWGQGSTLTVSSAKTTPPSVYPLAPGSAAQTNSMVTLGCLVKGYFPEPVTVTWNSGSLSSGVHTFPAVLQSDLYTLSSSVTVPSSTWPSETVTCNVAHPASSTKVDKKIVP | soluble
3 | MGSDKIHHHHHHMTVTDLSKKPLLLLDHVTMQFGGLVAVDDFTNEIREGELVGLIGPNGAGKTTVFNVITGIYTPTKGRIVFNDIDITGLRPYQITHLGIARTFQNIRLFSDMTVLENVLVAQHHVLSNPDADRILVKHGKPRKGHGRFWFWRAVTKIGYLKKEKEMVERAKDLIKRVGLEKVMYEKASSLPYGEQRKLEIARALATEPKLILLDEPAAGMNPKETEDLMEFIKQIRKDFNLTVLLIEHDMKVVMGICERIIVMDYGRIIAEGTPKEIQNDPRVIEAYLGREWESV | not soluble
4 | MRGSHHHHHHGSTMDIKPAFGTNQEDYASYIMNGIIKWGDPVTRVLDDGELLVQQTKNSDRTPLVSVLLEGPPHSGKTALAAKIAEESNFPFIKICSPDKMIGFSETAKCQAMKKIFDDAYKSQLSCVVVDDIERLLDYVPIGPRFSNLVLQALLVLLKKAPPQGRKLLIIGTTSRKDVLQEMEMLNAFSTTIHVPNIATGEQLLEALELLGNFKDKERTTIAQQVKGKKVWIGIKKLLMLIEMSLQMDPEYRVRKFLALLREEGASPLDFK | soluble
5 | MKWFRFPIAVIGLVLLSGCATQNESATQWLYPPMAVPLQASIQQEVQIARLSQLLQRTDLEPEIRAKMLFERGNYYDSVGLRDLARLDFTQSLSINPAQPDVFNLLGVYYTEAGEFDAAYESFDSTLELDPSNEYAVRNRAIALYYGERPQLALEEITKHYQQDPQDPFRALWLYIIESDIDPTKARTELLERYQQHDEQWGWVLVGLMLDQLSEEVAFKAIIAGSRENELLAQRLTEAYFYLGKRYQMQGELAHALSLYKLAISFNVYEYVEHRYAFLELGRIYQQAREEQLARAKAEAMTQ | not soluble
6 | MAHHHHHHMLCGSRATFARTAVAFFNMKHFQTKKKYNLTPQNIYETFSTVLLPRDRLLRQSVSGGGGSRVLVLDAQQRVKGVYLPVFCMPHPSTVTNGSNSLGVAVADYTRSIEATLAMHKAGGGGGTAPTLPTVLVVLSHPQGLAYGTFRADGTPGVPMKNLALAPILANARTQQASTNIASTPLRTSGLGTVMPLLNVSHRHAEVVRDIYTELNECEHVAELAACSTFVWVQRDNMSSMTFEKAQSSERYWERAKNDGDSAAAPPPGAISFLDRRWVLLMDVALHPDTGLGLYARDPATGDRIVNATGVQSALCRGLLLLDHVPRTVANTARAANRETGVSG | soluble
7 | MGSDKIHHHHHHMLHLNLLQVFISVAENSSFTLAGSEMHRTQSAISMKIKRLEEILGVPVFERSGKSIELTKEGAIFLTHSRRILQLVDEAMSAVGAVRKSNVVRLGCVEDYAVRTIPKILVDFWVEHPDVHIEMGTGDSASLLDRLGDDFDVVLAEHPLNSGEGEVVCTDSLVWGASANHSPHLQEPIPVAFRSQGALERQWACSALNAAGRPWRLACLSAGIGTLQTAVDAGLAVGVFKASTLAGALNRLTPADNFPQLPDVEMALHVMNDGFSQPSIMQLVKKLRESLQRPQLAAAHE | not soluble
8 | MSLVTIKDIARNLGISYSTVSRCLNNNPNVSEKTKKKVVEEANRLGFHFNVNARNLAKKETNRIGVIFSNNFNHQDTRKFFSDIMDSSINSIETNKYDFIIQPNNNISGDSNVYKMVNGQMVDGLVIVSQSIKKEEYDFLKDNNFPHVFIYFKPSFIGEVDNFFWDDNVYGGYIATKHLIDHGHKDIITVTSDDKSSKMHEDRTKGYLNAMEEANLKTEVIKSKMDFESQVEFLEKYIDKIKKASAIFVQQDVPAISIIQELKTTYGINVPEDISIIGYNNIELISYFRSHLSTIDDPREQVIKNGVDSLVNIINKKSTEHIPRKLYPRLIIRNSVKRIKEGHHHHHH | soluble
9 | MKKWEKQTMKIAALGAMALTLAGCATAKSSSSQGNNPGKTIKIGVNMELSGSAAGYGEQQKQGIQLAVKKINKSGGIKVGGTKKKIQLVIRDNKTSNTTAASVAAQLVNNDKVVAVVGPATTSAGTAAIPNMTKAAVPSVSPSATDPDYTLQKSGKVQKYIFRACYQNNFQGATAATFVTKNLKAKRVAILTDNSSDYGTGLTKAFKKQYRGTVVSSQTFQEGDKDFNAILTALKHKKIDAIYAPGYYSEIGLIVKQARQAGIKAPIVGSDGMADAKLAQIAGKSNATNVYYTTPFSTKASATNKVASKFMSAYKAKYGSTAPTFSALAYDSVYMIKAAIEKEGSANSVKIADGLAKLKNFKGVTGTMTIDKQHNPEKTISIEQLTNGVVSKVYNVK | soluble
10 | MSLIIRTDTSPHRAAAKLSPNELTLTGARLVLPDEVYDGTVHIIDGYIDDIAAGRSTVPGAIDLEGGYVTPGLIDLHTDNSEKHALPRAGVVWNHLSAVMAHDALVIAAGITTVFDSLCIGSTTRDHTRQADRARILPVLIDGIREARAHGLLRADHFLHLRCEVTDEEVMSVFTPLVGDPLVKLVSVMDHAPGHRQSPQLDRFREMQIKQYGWSAEDADRRIEAWIDASRTIGPQNRSRIIALARARQLPLASHDDQTPEHVREANDAGVLISEFPTTRAAAEIARSLGICILMGAPNIVRGSSHSGNISARELATTGHLDILASDYVPASLLHGAFQLTRDPIGMSLTKAISTVSSVPASVTGFCDRGMIGIGGRADLCHIVEIADIPVVRGVWRQGRQVFEGHHHHHH | not soluble
11 | AVSFTGVSGVKNIVAVTACPTGVAHTFMSAEAIEAYAKKQGWNVKVETRGQVGAGNEITVEEVAAADLVFVAADIDVPLDKFKGKPMYRTSTGLALKKTEQEFDKAFKEAKIF | not soluble
12 | MWTDAGGQVHEAASGDVRIASLVPSITELLFDLGLADQLVARTGFCIHPEPAVRAVAKVGGTKDVKLDRLRALAPTHVVVNIDENRRETVDEIRTFVPHVIVTHPCAPEDNLALYRLLGGIFGRRPQAEALVGQLRGELDAIQAQTWPARRVLYAIWQDPWMTVSRATYISRMLALVNWATWPDDADTSDTPAACVDGDCSRPNAPGERYPTFRWSDALVRELDAVLLSTEPYRFTEDHADALERQIGKPVLLVDGEMLSWYGSRAVAGARYLRSLAQGFLEHHHHHH | soluble
13 | MIVDSISSSTASTSSSSPTRGTPIRKSLQCAVCGDVALGKHYGVNACNGCKGFFRRSIWKNRTYACRHGGKCLVAKEQRNACRSCRLTRCLDVGMNPRAVQGDTVEDPEWDEEAMPETLSISTQTDALKVKKKSHTSLFTLDIKKEQIIDNLRAIYARTDPEEFWKLTYPGTYDFRYAFHNTKVVSPRTPLTPTAERIATLNDVVADFRRAFVLFVDILKSIDQLRDVQEDDKMKIAKSRFAAFYWWLCSTWSAKAGCNGVCYSNGSYHPASISDMPKSEGKHGVRIDYSGVSQKSLENLVEPLRRMELSDEERIVGAVMVILADPVPNVSTKTEKILAEARDFYLELLGYCIKLPEEQQGIRVSTMVLLLASIMELVHLTTDNIQLSDVLHVIDLGDWSQELRDHRYRRQF | not soluble
14 | MDVVFETVNCLESNRKIIIVKLPDGSSEKFFFNVTKRAFEKIVCVDGKPVQMDSDLTPHHSVWCPHIHKNIIFAYNHLLRMNLQYLFDSETLSFHETKCDQCHLDPKKSTNVKQILLVAASPKIRRPIVLTMSQEGRVLKMCYDEIEKNYVDMSPTEIKALTQLKDVTAAMEDLTLDSKVMESDLIPLVKEKSVFLPHDSILIAKNKKTNKIGQYVFDRYHHQFLEVVMSDIEIKQEMPNIAKLINVTMSTKTEQAISIRCTPGIGELKKFHYNRETASFDPMEEKAIVESDEEIQSFIEEIEKTQDIVCKKIKAILWFYHNVKPFLAKKLENPVKKNNDYKRYVFKPVEPEEKVDDEMDSVSEPESDSLSMSSSSRSSSRSSLSSDDSFEMVVDIDFVE | not soluble
15 | MSKEGDILKPEEETMEFPEGDKVKVILSKEDFEASLKEAGERLVAVDFSATWCGPCRTIRPFFHALSVKHEDVVFLEVDADNCEEVVRECAIMCVPTFQFYKKEEKVDELCGALKEKLEAVIAELK | soluble
16 | SGRFSIKAKNYFLTYPKCDLTKENALSQITNLQTPTNKLFIKICRELHENGEPHLHILIQFEGKYNCTNQRFFDLVSPTRSAHFHPNIQGAKSSSDVKSYIDKDGDVLEWGTFQIDGR | soluble
17 | MSDHEEESHGASPTSPASSGASSPLAPISPRSEGNAPESPSGDVQDIYKDESFEAPASPARDSSAPASPSAASPAGSRSPSPSPVKTKSKVMIDSDEDSDAEESANKRALIDSDASDAEGKKRRVMLDSDDSDHEGTSKKEPTTKNLFGDDSDDDDEDRPKKTNDLDEFVEGRDEEESQETSKPAYDSDDDDGPVDRHGRHFEWDFDKMLAEKKAERKKKTRRGGKDGGIDIINDDDGTVSRLVERMKHAAKSDRNANIERKPAFQKIKMLPEVKAIMLRAGIVEVLIENGFMSALSEWLAPLPDKCLPALDIRITVLKLLHNPRFWKLDRSTLKQSGLGKAVMMLYKHPNETKENKGIANKLIGEWARPIYHLDTDYSTVSRQEREERDYSRMPEKRKKKINSRDEEEPNDDDQPKRPRIRDADEMGPTKSDDLKPGDKGYIPRARVPKPSTKDYVIRPEWRVTGAFKGEKKSTGNNRYDQTFRDFQERTKKSKANRIVKVSLEGRNMGI | soluble
18 | MMNKLPHETRVVIGMSGGVDSSVAALLLKEQGYDVIGIFMKNWDDTDENGVCTATEDYNDVIEVCNQIGIPYYAVNFEKQYWDKVFTYFLDEYRAGRTPNPDVMCNKEIKFKAFLEHAIALGADYVATGHYARVAYMDGEYKMLRGVDDNKDQTYFLNQLSQEQLSKTMFPLGELKKPQIREMAKEAGLATAAKKDSTGICFIGERNFKDFLSNYLPAQPGVMQTLSGEVKGKHDGLMYYTIGQRHGLGIGGNGDPWFAVGKNLKENILYVDQGFHNELLYGDEVIATNVGWVSNKEKETEFKCTAKFRYRQEDNKVTVQIVDENTVRILCDEPIRAITPGQAVVFYDGDECLGGATIDEVYRSGKKLDYLG | not soluble
19 | MSLHEASIALALIDVAGDVLREHGAARASALTVRVGQWSSVVPEALAAAFPACAEGTPLAGARLSIERVPGVGECPQHGPVELEVWRGLRCPLCGAPTPRLLQGDELELDQLELDQLELENLEGHHHHHH | not soluble
20 | LLERVSAEAVTTTLHQVTRERMEDRCRGEYERSFLREFHKWIERVVGWLGKVFLQDGPARPASPEAGNTLRRWRCHVQRFFYRIYASLRIEELFSIVRDFPDSRPAIEDLKYCLERTDQRQQLLVSLKAALETRLLHPGVNTCDIITLYISAIKALRVLDPSMVILEVACEPIRRYLRTREDTVRQIVAGLTGDSDGTGDLAVELSKTDPASLETGQDSEDDSGEPEDWVPDPVDADPGKSSSKRRSSDIISLLVSIYGSKDLFINEYRSLLADRLLHQFSFSPEREIRNVELLKLRFGEAPMHFCEVMLKDMADSRRINANIREEDEKRPAEEQPPFGVYAVILSSEFWPPFKDEKLEVPEDIRAALEAYCKKYEQLKAMRTLSWKHTLGLVTMDVELADRTLSVAVTPVQAVILLYFQDQASWTLEELSKAVKMPVALLRRRMSVWLQQGVLREEPPGTFSVIEEERPQDRDNMVLIDSDDESDSGMASQADQKEEELLLFWTYIQAMLTNLESLSLDRIYNMLRMFVVTGPALAEIDLQELQGYLQKKVRDQQLVYSAGVYRLPKNCS | soluble
21 | PATCPIVPGQEMIIEISKGRSGLGLSIVGGKDTPLNAIVIHEVYEEGAAARDGRLWAGDQILEVNGVDLRNSSHEEAITALRQTPQKVRLVVYRDEAHYRDEE | soluble
